The values that follow come from the domain aggregation screens of Martell et al. (2025).
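Also: 20 min heating vs room temperature control held 20 min.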

A short description of the series: soluble fraction after stress (log2 fold change); higher = more stays soluble; pooled small domains, quantitative proteomics. The note with it: stress: 75 degC.
Turning to “HMVKNVVIPDVSNKAPVDASNQLTDLGFEVVTEYKYIASDTIEEGKVVKTSPEIGSKRKYGQKITLYISSG”, the “soluble fraction (log2)” value was -1.23.
As for “HMVKRAYGEYVNVKLTDADLSKLKADFPADWQERIERLSTYMASTGKTYKNHLATIRNWARRDAERVSA”, the “soluble fraction (log2)” value is 0.958.
Under “HMVKVSVYPNPAVDRITISGEVKAYAVYDATGKVVMKDTDYRGGAIGVSHLPAGIYIVRTDAGAVTVNK” stands -0.595.
For “HMVLSVRDRMVQILDQVKTGEYKRIEDFFSADEGRTGFVVSFVAILELVKGGLLTITQSKNLAPIYVRLPN” the value was -0.0123; for “HMVLVEEYDTKDSASTFKIGYYARYNTKYGTPSKVGSYADNQRSGIWTFYTDSLKTYFKYNYSTGLIL”, 0.0292.
For “HMVLVGERRQKILEVVSSGKAVTVEELSRILHVSPSTVRRDLRFLESRGLLYRTHGGAMPPV” the value was -1.95.
As to “HMVLVKFEWTPPDARILVDDHPVEARDKEMELPEGTHHVQALAPRGSGYESTVTDIEVRQGMDPVRIAL”, the “soluble fraction (log2)” value was -0.292.
For “HMVMRHTVEHDAELLAVLRLMYPASSSTKLRKMLTQGRVLVNDDVVHRAKHGVASGDTVDVIVRQRAE” the value was -2.21.
Take “HMVNFKLIGNKIAEARKKVNISQAQLAQRLFISSQAVGKWERGESMPDIITFNRLAEILGVDLNYFSE”: the “soluble fraction (log2)” value is -2.53.
Under “HMVNPDAPAPLYIVNGKETDKNIALAIKPEDVQDVRIIKNTVALQVYGEKGKNGVVIINTKPGV” stands 0.132.
For “HMVNSADLAAKPFIDLLVSTRQQLREAKQYDLADTIRDELTNHGITIEDKPQGSEWQYEFNPNS” the value was 0.0875; for “HMVNTYILNNKEYPIEIIRKNNKNTYLRVKEGKIIVTTNYLTSSFTINKLIKDNTSFINKALLKEN”, -0.71; for “HMVNYKEILRLAHEGYSQRQIATNIGNSRNTVSEVLDAAKAANIAWPPEETVTNEQLGAILFPNRH”, 0.349.
“HMVNYKEILRLSAEGNSQRQIAAGSGNSRNTVIEVLEAARARGITWPLDEPVTNEQLEAILFPNRY”: the “soluble fraction (log2)” value is -0.072.
For “HMVPEETKQFINQLNHGSLSIRMNAANNLEKLGLLAIPEIEAALPKAHGEAAFRLPRLLHALVLRETEYF” the value was 0.185.
Turning to “HMVPEMIRDVISKSIRDMGVLPDHMQINERIALIQSLKKQQILGIKGAVAETARQLGISVPTVYRYMKKG”, the “soluble fraction (log2)” value was -0.946.
For “HMVPFISVTPTSLSFAKGGESKTVDIEASGAFSVGKVPTGFNLEVVNGRITITADANTGAARNGSVEFILA”, the “soluble fraction (log2)” value was found to be 0.222.
Under “HMVPHTTSMVAEVQERLFNLNYDPGPINGRMDQATITAITRFQRNFSLPQTGQIDEGFLNTLRDARL” stands -0.73; under “HMVPLGDLSKNERRAMELAATNGNVTTRALADDAQVTKRTASTTLRRLAKRGLLEWIGKGPSDPGQFYRIP”, -0.351; under “HMVPLTPGELVGTEVRVLWWKEGRGEVIASSRGHQLTLEAHSEDPLRAGSTAVVLEAADDVLVVTS”, -0.734.
Under “HMVPPELEFLQSLMKIEDISELTAAIENNRDAVTDDFKEMLETVIENISGAPDTDPKLLERLKTIRTVLA” stands -0.0936; under “HMVPPVVRTIYGAGGKMTATFLFPGGYEVDAASGAELPGKYRVESISLDQVVLTDKDGNRVPVGFSSVAPT”, 0.149.
In the case of “HMVPQEVLPITLIIDGKLIEENLLYAKMTEQVLIQQLDINNIKSIKQILFAGLDSFGNFFYQEKQN”, the “soluble fraction (log2)” value is -2.5.
For “HMVPTATVGENTSTLPVRQLPGGPVLVVLVRGDIVLPLPGHAFQNGDVWREISTVNGVIGWVPDEFLDY” the value was -2.25; for “HMVPTVSVDRDDTLRFEGRPVDWDVLKRELGAVAGIDELKIYADAKVSALTVSKIMKSASEAGVLQFILVT”, -0.0735.
For “HMVQARDQNIEEGRQLVLRELDRLDLVNESLTDVAADMNMKSVEDMYAAIGAGDLRVGQVVHAVLKRAD” the value was 0.0164; for “HMVQDSEWWRNYQSAHDYFIQNGHLNVLRSDKKNTKLYNWIVGQRSSRWNSQGRINLLNSIGFIWDT”, -3.01.
